Test results: patent US20170107289A1 (SORRENTO THERAPEUTICS, published 2017)
Where “and” joins values, the source holds several entries; their conditions need not be identical. Equal values may be shown once.

Legend:
[1] = target: T1, STAT3 in fixed or permeabilized human tumour cells (U251 glioblastoma); MDA-MB-468 / MDA-MB-435 breast cancer … (human, UniProt P40763 2-770); experiment: flow cytometry on fixed, methanol-permeabilized U251 cells; PE anti-human IgG; MFI (FL-2)
T1 construct: whole, on cells; STAT3 is intracellular and the cells were permeabilized; also called cellular antigens; cellular targets
Description: (§1) Next, the binding of the candidate anti-STAT3 antibodies to cellular targets was tested in cell binding assays using MDA-MB-435 breast cancer cells and U251 cells. The cells were seeded overnight in a 96 well plate, then fixed with PFA and permeabilized with methanol. Cells were incubated with serial dilutions of the anti-STAT3 antibody candidates ST1A5, ST3G12 and ST5G12 for one hour and 30 minutes. Following incubation, the cells were washed and incubated for 30 minutes with phycoerythrin (PE) conjugated anti-human IgG. Fluorescence was measured on an Intellicyte high-throughput flow cytometry analyzer. […] Bevacizumab (Avastin), a monoclonal antibody that inhibits vascular endothelial growth factor A (VEGF-A) was used as a negative control. As shown in FIG. 8A and FIG. 8B, the anti-STAT3 antibodies ST5G12 and ST3G12 both bound STAT3, with ST5G12 being an especially strong binder.

[2] = target: T1, STAT3 in fixed or permeabilized human …; experiment: flow cytometry (HTFC) on permeabilized U251 cells; PE anti-human IgG; MFI
Description: After 45 minutes at room temperature, cells were washed twice and incubated with phycoerythrin (PE) conjugated-anti-human IgG for 20 minutes at room temperature in the dark. Cells were then washed and analyzed by high throughput flow cytometry (HTFC). The results are shown in FIG. 9 for assessment of antibody binding to cellular antigens in U251 cells.

GST protein = GST protein (UniProt P08515 1-218 = GST); experiment: SPR (Biacore T200), antibody captured on anti-human Fc
[3] = target: T2, recombinant human STAT3 proteins (human, UniProt P40763 1-770, limits assumed); experiment: ELISA on recombinant human STAT3 (sheet title 'STAT 3 binding'); Abs 450
T2 construct: It may be the same STAT3-GST as in the Biacore assay

[4] = target: T3, Recombinant human STAT3-GST (human, UniProt P40763 1-770); experiment: SPR (Biacore T200), antibody captured on anti-human Fc, STAT3-GST as analyte, 1:1 model
T3 construct: The order of STAT3 and GST follows the printed name 'STAT3-GST' only; not shown: GST (glutathione S-transferase) tag
Description: Anti-human Fc antibody (GE, BR-1008-39) was immobilized on a CMS sensor chip to approximately 1000 RU using standard NHS/EDC coupling methodology. Antibodies (approximately 10 ug/ml) were captured for 60 seconds at a flow rate of 10 ul/min Recombinant human STAT3-GST was serially diluted 2-fold into running buffer (HBS-EP+, starting from […]). All measurements were conducted at a flow rate of 30 ul/min Surfaces were regenerated with 3M MgCl₂ (from human antibody kit) for 60 seconds. A 1:1 (Langmuir) binding model was used to fit the data.

[5] = target: T2, recombinant human STAT3 proteins; experiment: STAT3 binding ELISA, Hu-IgG-FAB detection (sheet title; legend paragraph 22 says 'to human IgG'); OD 450 nm; the EC50 column has no unit, x axis in ng/ml
[6] = target: T2, recombinant human STAT3 proteins; experiment: 'Binding ELISA, Hu-IgO Detection' (sheet title, 01052015), Superblock as blocking buffer; coated antigen not named, taken as STAT3 by analogy with the title of FIG. 10; OD 450 nm; the EC50 row has no unit, x axis in ng/ml
[7] = target: T2, recombinant human STAT3 proteins; experiment: binding ELISA with Superblock as blocking buffer; coated antigen not named on the sheet (legend paragraph 30 says 'to human IgG'), taken as STAT3 by analogy with the title of FIG. 10; OD 450 nm; the EC50 row has no unit, x axis in ng/ml
[8] = target: T2, recombinant human STAT3 proteins; experiment: binding ELISA with Superblock as blocking buffer; second column of the table taken as the curve labelled 901a (only two curves, two columns); coated antigen not named on the sheet, taken as STAT3; the EC50 row has no unit, x axis in ng/ml
[9] = target: T2, recombinant human STAT3 proteins; experiment: 'Binding ELISA, Hu-IgO Detection' (sheet title), Superblock as blocking buffer; second column of the table taken as the curve labelled 901a; coated antigen not named, taken as STAT3; the EC50 row has no unit, x axis in ng/ml
[10] = target: T1, STAT3 in fixed or permeabilized human …; experiment: flow cytometry on fixed, methanol-permeabilized MDA-MB-468 cells (sheet title; legend paragraph 19 says MDA-MB-435); PE anti-human IgG; MFI (FL-2)
Description: as §1

T1 sequence (P40763 2-770): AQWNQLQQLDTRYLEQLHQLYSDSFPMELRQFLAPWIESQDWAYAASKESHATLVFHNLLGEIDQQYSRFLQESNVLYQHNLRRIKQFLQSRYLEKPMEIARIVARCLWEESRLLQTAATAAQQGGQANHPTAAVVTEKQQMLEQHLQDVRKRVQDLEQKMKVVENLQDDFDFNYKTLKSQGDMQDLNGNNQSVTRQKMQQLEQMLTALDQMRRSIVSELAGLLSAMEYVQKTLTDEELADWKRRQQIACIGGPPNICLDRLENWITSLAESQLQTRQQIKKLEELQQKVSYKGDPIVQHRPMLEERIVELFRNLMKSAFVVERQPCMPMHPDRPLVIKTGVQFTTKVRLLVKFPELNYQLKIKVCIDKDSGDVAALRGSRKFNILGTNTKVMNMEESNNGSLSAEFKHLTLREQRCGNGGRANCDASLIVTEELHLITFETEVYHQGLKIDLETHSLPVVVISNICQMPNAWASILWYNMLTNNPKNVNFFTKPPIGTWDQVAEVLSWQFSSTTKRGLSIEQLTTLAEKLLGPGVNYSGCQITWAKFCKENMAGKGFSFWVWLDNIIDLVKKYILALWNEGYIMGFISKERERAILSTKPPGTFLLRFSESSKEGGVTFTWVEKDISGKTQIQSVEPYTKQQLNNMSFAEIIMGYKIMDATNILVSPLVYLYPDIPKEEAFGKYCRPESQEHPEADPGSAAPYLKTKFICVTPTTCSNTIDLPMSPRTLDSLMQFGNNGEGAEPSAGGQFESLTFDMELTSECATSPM
T3 sequence (P40763 whole entry): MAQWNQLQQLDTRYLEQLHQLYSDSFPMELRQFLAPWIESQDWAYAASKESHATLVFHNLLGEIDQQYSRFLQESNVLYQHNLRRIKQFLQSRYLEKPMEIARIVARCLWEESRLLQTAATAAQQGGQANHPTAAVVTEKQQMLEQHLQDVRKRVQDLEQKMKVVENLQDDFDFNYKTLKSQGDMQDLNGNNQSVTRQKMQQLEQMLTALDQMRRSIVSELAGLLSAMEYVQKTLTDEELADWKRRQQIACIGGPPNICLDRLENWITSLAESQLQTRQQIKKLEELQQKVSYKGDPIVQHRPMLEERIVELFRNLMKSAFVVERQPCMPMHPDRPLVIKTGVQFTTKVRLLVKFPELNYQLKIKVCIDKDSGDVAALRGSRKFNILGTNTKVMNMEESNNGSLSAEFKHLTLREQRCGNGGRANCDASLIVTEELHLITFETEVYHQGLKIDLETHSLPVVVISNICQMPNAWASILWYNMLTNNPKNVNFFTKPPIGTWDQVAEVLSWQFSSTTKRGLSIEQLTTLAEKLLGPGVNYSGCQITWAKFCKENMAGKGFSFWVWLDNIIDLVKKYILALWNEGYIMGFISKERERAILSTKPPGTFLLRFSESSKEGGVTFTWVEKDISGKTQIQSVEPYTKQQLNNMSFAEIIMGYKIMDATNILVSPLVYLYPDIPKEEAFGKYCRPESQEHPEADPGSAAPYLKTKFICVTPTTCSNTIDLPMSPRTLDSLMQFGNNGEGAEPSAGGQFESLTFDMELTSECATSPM
T2 sequence (P40763 whole entry): as above
Chain of GST protein (P08515 whole entry): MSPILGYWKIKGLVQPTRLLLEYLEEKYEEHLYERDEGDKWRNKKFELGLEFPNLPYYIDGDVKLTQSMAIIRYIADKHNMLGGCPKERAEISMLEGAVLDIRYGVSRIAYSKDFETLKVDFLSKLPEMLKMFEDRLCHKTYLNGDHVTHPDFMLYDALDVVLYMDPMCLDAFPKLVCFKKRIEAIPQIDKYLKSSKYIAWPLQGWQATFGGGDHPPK

B1: anti-STAT3 antibody ST3G12 (unmodified) (antibody, V domains shown)
VH: QVQLVQSGAEVKKPGASVKVSCKASGYTFTSYYMHWVRQAPGQGLEWMGIINPSGGSTSYAQKFQGRVTMTRDTSTSTVYMELSSLRSEDTAVYYCARSDYVHSFDIWGQGTMVTVSS
VL: QPVLTQPPSASALLGASIKLTCTLSSEHSTYTVEWYQQRPGRSPQYIMNVKSDGSYNKGDGIPDRFMGSSSGADRYLTFSNLQSDDEAEYHCGESHRIDGQVGVVFGGGTKLTVL
notes: also called naked anti-STAT3 ST3G12 antibody
[1]
  EC50 (read off the curve): ~4 nM
[2]
  EC50 (read off the curve): ~9 nM
GST protein
  binding result: no binding
[3]
  EC50 (read off the curve): ~0.06 µg/mL
[4]
  Kd: 5.39 nM
  koff: 0.000322 s⁻¹
  kon: 59700 M⁻¹ s⁻¹
[5]
  EC50: 0.155 µg/mL
[6]
  EC50: 0.0257 µg/mL
[7]
  EC50: 0.122 µg/mL

B2: compound 901a (ST3G12 conjugated to the phosphorothioate oligonucleotide, non-fluorescein version) (antibody, V domains shown)
VH: B1 VH
VL: B1 VL
modifications: phosphorothioate oligonucleotide joined to the antibody through a linker; residue(s) and chain of attachment not stated
notes: also called ST3G12-PS
GST protein
  binding result: no binding
[3]
  EC50 (read off the curve): ~0.06 µg/mL and ~0.1 µg/mL
[4]
  Kd: 0.222 nM
  koff: 0.00011 s⁻¹
  kon: 494000 M⁻¹ s⁻¹
[8]
  EC50: 0.186 µg/mL
[5]
  EC50: 0.153 µg/mL
[9]
  EC50: 0.0643 µg/mL

B3: anti-STAT3 antibody ST1A5 (antibody, V domains shown)
VH: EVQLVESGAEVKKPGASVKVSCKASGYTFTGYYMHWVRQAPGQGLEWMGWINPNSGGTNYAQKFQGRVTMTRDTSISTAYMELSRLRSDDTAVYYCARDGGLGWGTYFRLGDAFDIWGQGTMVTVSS
VL: QSVLTQPPSVSKGLRQTATLTCTGNSNNVGNEGAAWLQQHQGHPPKLLSYRNFNRPSGISERFSASRSGNTASLTITGLQPEDEADYYCSAWDSSLSAWVFGGGTKLTVL
notes: Human antibody; it was detected with anti-human IgG
[1]
  EC50 (read off the curve): ~8 nM
[10]
  EC50 (read off the curve): ~6 nM
